In publication PMC3777173:

Experiments:
biotinylated ovalbumin = biotinylated ovalbumin (UniProt P01012); assay: SPR; ProteOn XPR36; OVA-biot covalently immobilised on a GLC chip (sulfo-NHS/EDC); EDAvidin in 2-fold dilutions from 100 nM, then (after regeneration with 2 μM biotin) streptavidin; PBS, 0.005% Tween 20, pH 7.4; 30 μL/min; referenced against nonbiotinylated OVA; Langmuir model
[1] = biological target: EDAvidin (fusion protein between the extra domain A from fibronectin and streptavidin); assay: SDS-PAGE of the sample not boiled against boiled; purified EDAvidin, nondenatured against denatured (boiled), Coomassie blue

Chain of UniProt P01012 (P01012 whole entry, the tested form may be a part): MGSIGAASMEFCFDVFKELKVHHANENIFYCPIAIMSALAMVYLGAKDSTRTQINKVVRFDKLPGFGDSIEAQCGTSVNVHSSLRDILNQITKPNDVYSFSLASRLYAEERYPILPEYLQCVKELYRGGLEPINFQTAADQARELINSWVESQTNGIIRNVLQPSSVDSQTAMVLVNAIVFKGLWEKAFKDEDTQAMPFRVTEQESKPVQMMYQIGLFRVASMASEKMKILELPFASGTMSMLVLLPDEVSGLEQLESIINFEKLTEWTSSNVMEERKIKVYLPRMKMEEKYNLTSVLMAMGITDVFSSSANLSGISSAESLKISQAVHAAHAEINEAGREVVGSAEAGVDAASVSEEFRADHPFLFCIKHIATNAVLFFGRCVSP

## EDAvidin (fusion protein between the extra domain A from fibronectin and streptavidin)
Biotinylated ovalbumin
  Kd: 0.023 pM
[1]
  stoichiometry N: 4
